The sequences below were run on K4 kissing-loop RNA reporter (assay: apparent KD of K4 kissing-loop reporter; higher = weaker reporter binding). Details: Eterna round: R107; input ligand: FMN 200 uM.
Experimental: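 RNA-MaP round R107: designed RNA switches with theophylline, tryptophan, arginine or FMN aptamers are transcribed on-chip within common flanks. They are titrated with a labelled K4 kissing-loop RNA reporter in RNA-MaP buffer (100 mM Tris pH 7.5, 80 mM KCl, 4 mM MgCl2), without ligand or with the indicated ligand. Median apparent KD per design.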
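Further: bound reporter read as fluorescence of individual clusters on recovered sequencing chips by microscopy, with normalized cluster intensities fitted with a binding model.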

Row | Sequence | apparent KD of K4 kissing-loop reporter [nM]
1 | UUUUUCGCGUUUGAUACCAGCAGAGUUGUUCGUGUCUGGAACAUGAGUGAUGUUCAUGUCUGCCCUUGGCAGCAAACGGGAGAAG [KL-XTheo-B13] | 127
2 | GGGUGGCAGGCGGCCGCCACUCUGAGCACCCACUGAGUGAUGUUCGUGGCGUAAGCCUGUUCGUAGAGGACCGGGUUUGUUGUUC [Exclusion Tryptophan B GF 15] | 413
3 | GGUGACAACCAGAGGUGAUGUAUAGAAUAGCGAGGACCGGUACGGCCGCCACUCGUGAAGAGAAAGGAGUGAUGUUCCGUAAUGG [Kazoo C5] | 330
4 | GCAGUGAUGUUGCGCAGGUACAGUGGAGUGCGAGGACCGGUACGGCCGCCACUCGUACAGAACUAGCUAAUAUAUGGAUAGGUGA [VIII] | 287
5 | UGUUAUGGGUGAGGAUAUGCUGACGAUGCGGGUGCGAGUGAUGUUGGUGUGGCUGGUGUCGUUUGUGCAGAAGGCACGCUCGUGG [BDazzled] | 879
6 | UGUACCGAGUCAGGAUAUCAUAAUAAUGCAGUGAUGUUGCAAUAACGACUGACAAAGUCGGUCGAUUGAGAAGGGACUUGGUACU [FmnBS 6 #SwitchBubble #StaticStem] | 127
7 | GCGAUUCAGUGAUGUUGGAAAUACAGGGAUACCAGCCGAAAAUAAGGCCCUUGGCAGCUUAAUAGGAAAGAACUAAGAAAGACGC [Theophylline A Same State; Euphoria Solution 3] | 556
8 | UUAGAGAUCUCAGGAUAUGAGUGAUGUUGGUAUCAAGAUCUGAGAUAGAAUUCUAUCUCAGAUCAAUCAGAAGGGAGAUCUCAUU [AK2.1 Exc FMN B] | 376
9 | UGAUAGGACAGAAGGAGCGGAAGUGAUGUUUCCAAAAGGUAAAGGUGUCAAAAGACACCCUUCCAGGUAGGUCGCUGUCCUAUCU [ArgBX 12 #Palindromic #SwitchBubble #StaticStem] | 119
10 | GCAUAUACGAGAAGGAGCGUGCAUGACGAAUUAAUCAUCGACCUUAGUGAUGUUAAGGACGCACAGGUAGGUCGCUCGUGUAUGC [#04 K4 Arginine B Same State] | 380
11 | GUUACGCAUGGAAGGAGCGCUCUCCGGCUUAAUAACACAGUGAUGUUGUGAAUUUGCCGAAAGCAGGUAGGUCGCCAUGUGUAAC [Ex Arginine B K4 10] | 474
12 | UCCUGCAAUCGACCACGAAAGUGGAUUGAUACCAGAGUCGAAAGACUCCCUUGGCAGCGAGUGAUGUUCGAAGCAGGUAAAUAAA | 626
13 | UAACGGCCCAGUGAUGUUGGGUGGAGGCGGCGAGGACCGGUACGGCCGCCACUCGGCGCACAGGCGGAGUGAUGUUGCGCGUAAA [Same State Tryptophan A GF 13] | 242
14 | AAAUAAAGCAGUCAUCCAGUGAUGUUGGAAGGAGCGUGCGAAAGCACAGGUAGGUCGCCAAAACCUAAUAAUGGCUGCUAAAUAA [#SwitchBubble 2 #K4Early] | 170
15 | GUAUCGCUAGGAGGAUAUUUCAAAUCGCCAAUAAAUGGUGAUACGGAGUGAUGUUCCGAUUUACGGAAAGAAGGCCUAGUGAUAC [FMN B 6] | 135
16 | UGUCAUUGGUCUGAUACCAGCUGAUCGGAAACGAUCUUGCUGGAGUGAUGUUCCAAGUAAAGCCCUUGGCAGCAGACCGAUGACU [TheoBS 9 #SwitchBubble #StaticStem] | 183
17 | GGUAGCAUGGCGGCCGCCACUUACUUCAAUAGGAGUGAUGUUCCUAUUACUAGUAGUGAAAUAAUAAGGACCGGGCCAUGCUACC | 103
18 | AAACAUCACUACUUCUUCGUCCUAGAAGACUAGGAUAUCAGGAAACUGAGAAGGAGUCUCUGCAGUGAUGUUGCAGCUAGGACGA [[K]'-[F2]'-[F1]'-[F1]-[F2]-[K1]-[K2]-[F]''_Design2] | 191
19 | AAGCAGUCCCUUGUAGUCAUCGAAGAUGAACGAGGACCGGUACGGCCGCCACUCGGAGUGAUGUUCCGAAGGCUGCAAAAUAAAA [MatMod 19 - Jieux - Exclusion - Tryptophan A] | 122
20 | AAUUUAUAUUUAUUCUUUAAAUGUUCAGAAGGAGCGUGAAUUAUCACAGGUAGGUCGCUGGGCUAGUGAUGUUGGCUAUAUACUA [whbob_Ex_Arginine_A_2t125] | 150
21 | GGACGACAGGCGGCCGCCACUCAAAGCAGCCAGCGAGUGAUGUUCGUGGCGGAGUGAUGUUCCUAGAGGACCGGGUCUGCAGUUC [Same State Tryptophan B GF 18] | 449
22 | UUCAUCGUGGUUCGCGGGUGGUAUGAAAAGCGAGGACCGGUACGGCCGCCACUCGGUUCCGCUUGUUGAGUGAUGUUCAAUAUUU | 207

Row | Sequence | apparent KD of K4 kissing-loop reporter [nM]
23 | AACUGUCAAGGACAACAUUACUGAGGUGAUACCAGCAUCGAAAGAUGCCCUUGGCAGCACUGACUUGCAGUGAUGUUGCAAGUAA [BrourdMod 8 - Jieux - Exclusion - Theophylline A] | 208
24 | UUAACCAACAGCGAUACCAGCGUGGAGUGAUGUUCCGAGGAUCGGAGUGAUGUUCCGAAGCGCCCUUGGCAGCGCAGAAGCGCCA [Exclusion Theophylline B GF9] | 183
25 | AGUGGACGUGUCCGGAGUGAUGUUCAGGAUACCAGACACGAAAGUGUCCCUUGGCAGCCGGAGUGAUGUUCCGGCGUUCACUAAA [Omei KL Theo A Exc B v4] | 459
26 | GAUAUAGAGGCGGCCGCCACUAGUGAUGUUAGUGAUGUUAGAUAGAGAAUAGAACAGAGGUGGGAUAGGACCGGGCCAGAUAGAG [whbob_SS_Tryp_B_w34] | 90.6
27 | GGGAGUAGUGCGGCCGCCACUGAGAAAGAAGAAGAUUGUAGUGAUGUUAUGGAGGAAAGGAAGAACAGGACCGGGCAUUAGAUUU [SSTRyptB.I] | 1080
28 | GGAUAGGACACAGGAUAUGGUAGUGAUGUUACCAAACUGGUUAAACAUGUCAGAAAACUGGCAUGACCAGAAGGGUGUCCUAUCG [FmnBX 27 C11+G75] | 83.4
29 | AUUGUCGGAGUCUGUGCUGACUGACGAGCAAAGGAUAUGUUAUUAAACAGAAGGUUGUGCUGCUUAAGUGAUGUUUUUGGAGCUA [theeternabot_sameState_KL_FMN_A_26] | 308
30 | CGAUUCAUGGCGGCCGCCACUCGCGAAGCUCCCGUUACGAUGUCCGCAACAGUGAUGUUGUUGCCGAGGACCGGGCCGAGAUCCA [theeternabot_exclusion_KL_Trp_B_31] | 283
31 | GGUAGCUAGGUAGGAUAUAGCUAGUGGAGUGAUGUUCCACGAUACACGAGUGAUGUUCGUACCCUGCUAGAAGGGCCUAGCUACC | 114
32 | GGUAGCAUGGCGGCCGCCACUCAUCGCCUCCCAUCGUCGGGAAGAAUAAGUGUAGUGAUGUUACAGAGGACCGGGCCAUGCUACC | 472
33 | AGUCUCAAAAGAGGCAGCACUCACGAGGACAAGGAUAUCAUCUCAAUGAGAAGGUGUCCUCGUCCCUAGUGAUGUUAGGGAGUGC [Omei KL FMN A SS E v6] | 205
34 | ACCUGUAGCAGAAGGAGCGACAGUUAUUCUGAUAGAACUCUGAGUGAUGUUCAGAACAACUGUCAGGUAGGUCGCUGAUACAGGU [Arg B Ex t8a] | 577
35 | AUAUUUAUUUAGUCACUUUUCAUAUUAUGUCAGGAUAUCGUAUUUUCGAGAAGGGACUCAUGCUAGUGAUGUUAGCUAUUUCUCA [JR_Nu3_ExcFMNA_Sub022] | 104
36 | UGGAUAUAGUGAUGUUAUAUAGAGAGUGAUACCAGUUUAGAGAAGAACCCUUGGCAGCAUAGAGAAGUAUCAUUAGAGAAGAAUG [ExTheophyl.Ap] | 220
37 | GGUCCGGGCUCGGCCGCCACUCCCUCCUGCCGUAAGGUGGGAUACCGAGUGAUGUUCGGUUGGAGGAGGACCGGGAGCCCGGACC [#2 Exclusion - Tryptophan B Attempt #15 (HarryS)] | 165
38 | GGCAUGGUGACGCGGCUGCCAUGCACUUGGGAGGAUAUGUUUCGUGACAGAAGGCCCAGUGAUGUUGGGUCUGUUCAAAAGGACU [Lerere] | 434
39 | ACAGGAUCGAAGAUCCUGAGCAGUCAGGUCCGAGGACCGGUACGGCCGCCACUCGGAGUGAUGUUCCGAAGACUGCAAAAUAAAA [#SwitchBubble 4] | 853
40 | UGACUGGACUGAAGGAGCGCUAAAACUCCUAGUGAUGUUGGGAAAUAAGAGACAAAGUCUCAGCAGGUAGGUCGCAGUCUAGUCU [ArgBS 24 #SwitchBubble #StaticStem] | 481
41 | CUUUGAACAUGAGUGAUGUUCAUGUCCGAAGGAGCGUGCGAAAGCACAGGUAGGUCGCGGACGUGAGUGAUGUUCAUGUGAGCGA [KL-XArg-A11 #analogue] | 196
42 | UACAAACGUAGUGAUGUUACGUACUCUGAUACCAGACAAGUGUAAGUCCCUUGGCAGCAGUCAUUUUGCUUAUUAUUUUCUCAAA [JR_ExcTheophyA_Sub019] | 70.1
43 | GUGGGCAUAGCAGGAUAUCCAUAUUAACAGGAGUCCUCGCCAGUGAUGUUGGAAAGGUACCGGAGUGGAGAAGGGCUCCUACGUA [Anbiratien] | 594

Same assay, conditions: Eterna round: R107; input ligand: arginine 13.2 mM

Row | Sequence | apparent KD of K4 kissing-loop reporter [nM]
44 | UUUUUCGCGUUUGAUACCAGCAGAGUUGUUCGUGUCUGGAACAUGAGUGAUGUUCAUGUCUGCCCUUGGCAGCAAACGGGAGAAG [KL-XTheo-B13] | 112
45 | GGGUGGCAGGCGGCCGCCACUCUGAGCACCCACUGAGUGAUGUUCGUGGCGUAAGCCUGUUCGUAGAGGACCGGGUUUGUUGUUC [Exclusion Tryptophan B GF 15] | 162
46 | GGUGACAACCAGAGGUGAUGUAUAGAAUAGCGAGGACCGGUACGGCCGCCACUCGUGAAGAGAAAGGAGUGAUGUUCCGUAAUGG [Kazoo C5] | 298
47 | GCAGUGAUGUUGCGCAGGUACAGUGGAGUGCGAGGACCGGUACGGCCGCCACUCGUACAGAACUAGCUAAUAUAUGGAUAGGUGA [VIII] | 358
48 | UGUUAUGGGUGAGGAUAUGCUGACGAUGCGGGUGCGAGUGAUGUUGGUGUGGCUGGUGUCGUUUGUGCAGAAGGCACGCUCGUGG [BDazzled] | 522
49 | UGUACCGAGUCAGGAUAUCAUAAUAAUGCAGUGAUGUUGCAAUAACGACUGACAAAGUCGGUCGAUUGAGAAGGGACUUGGUACU [FmnBS 6 #SwitchBubble #StaticStem] | 118
50 | GCGAUUCAGUGAUGUUGGAAAUACAGGGAUACCAGCCGAAAAUAAGGCCCUUGGCAGCUUAAUAGGAAAGAACUAAGAAAGACGC [Theophylline A Same State; Euphoria Solution 3] | 603
51 | UUAGAGAUCUCAGGAUAUGAGUGAUGUUGGUAUCAAGAUCUGAGAUAGAAUUCUAUCUCAGAUCAAUCAGAAGGGAGAUCUCAUU [AK2.1 Exc FMN B] | 424
52 | UGAUAGGACAGAAGGAGCGGAAGUGAUGUUUCCAAAAGGUAAAGGUGUCAAAAGACACCCUUCCAGGUAGGUCGCUGUCCUAUCU [ArgBX 12 #Palindromic #SwitchBubble #StaticStem] | 124
53 | GCAUAUACGAGAAGGAGCGUGCAUGACGAAUUAAUCAUCGACCUUAGUGAUGUUAAGGACGCACAGGUAGGUCGCUCGUGUAUGC [#04 K4 Arginine B Same State] | 322

— the supplement of paper PMC9170038
